The values that follow come from article PMC5709738 (The EMBO Journal, 2017).

Sequences and labels used below:
B1: Ame1-Okp1 (K. lactis, full length) (complex, Kluyveromyces lactis)
chain 1: MDALKQRHLKLLYRQRGSASRTIDYDVVIEPELREDGDLVTDSQLTEQDDQSFPDIQVPSPDRVDDFDLNQGDGLMDKATANEDDIDHVIGDEVAAVNAPVETSDLVIDTTQFDSMTLSQLSTPLTSMATIDVLRRLLETVILVTIEERTSQFNRAGSARLRLKLKLEIKILTWFLHQSKEDLITISELNLSNNDLLYRLKQISLLKNSLSRSLLDVRSAISSYEGPNNALSEEQVALQNFKRINELILSQRIDTIINNNLPPDTSTFDTESKKGLLPTLKTLNESLQNTIG
chain 2: MSKRYLDDVLSPDTGTSDSDSSIENLNADNYRIDIVNDNARRDDIDRIQSSNLNHEPPYNLEGVFAIDDDEHGDEMVRKDSDRRQDITEDNDDSFVPDITTPPRERKRVRFGINEKGGDEEFNNVSPWDFKRLIRKFYKEQLPDTYQIRNWKRPSKDMLTNFIDLIENNIELASEEVFKQYHQELNQLYPDSEEQAKLKDSLENKVFDTTYNIKKRLKRTKVPSKIWVDNLNMEYIYAKGESIKKRYKSELDRAEAIERQLIREEEHLKSLQEKGETQAKKRKQVLSKELSELSKTMHPSLSVALSNTFGLIKDDKMSNEIYQQDKIDFNLKLKTDFSKPLISEKEENSLNGLTNAMDNNRELVNEIFGKISALLQPKKNSNE
notes: Ame1 of Kluyveromyces lactis; Okp1 of Kluyveromyces lactis; stands as the Ame1-Okp1 part of COMA; also called Okp1-Ame1; source: E. coli BL21 Rosetta 2(DE3)pLysS, co-expressed with Ctf19 and Mcm21 versions
B2: Okp1-derived synthetic peptide with the Ctf19-Mcm21 binding motif (Okp1 residues 318-337) (peptide, UniProt Q6CJY0 318-337, looked up)
peptide: SNEIYQQDKIDFNLKLKTDF
notes: also called Okp1-derived peptide; source: synthetic peptide (Protein Chemistry core facility, IMP, Vienna)
B3: Okp1_295-383 (K. lactis) (domain or fragment, Kluyveromyces lactis, UniProt Q6CJY0 295-383, looked up)
chain: KTMHPSLSVALSNTFGLIKDDKMSNEIYQQDKIDFNLKLKTDFSKPLISEKEENSLNGLTNAMDNNRELVNEIFGKISALLQPKKNSNE
notes: source: E. coli BL21 Rosetta 2(DE3)pLysS, co-expressed with Ctf19 and Mcm21 versions, purified
B4: Nkp2 (K. lactis) (natural protein, Kluyveromyces lactis, UniProt Q6CSR8 1-151, looked up)
chain: MLHEVLYKHLDGILVSRLYTEDQFVDLFSRTIPESNTVIASQLYKSYEENDQRIIEKIDKLIDNKLSLIRVELEREQIEDSISLEEVNKLLHSIDDMLQQHLNQLNIELDNKNTKLLKYAMELSDIEAIDTSMYDNVAKLITDMETNQPSS
notes: Nkp2 of Kluyveromyces lactis; also called non-essential kinetochore protein 2; source: E. coli BL21 Rosetta 2(DE3)pLysS, purified
B5: Nkp1-Nkp2 heterodimer (K. lactis) (complex, Kluyveromyces lactis)
chain 1: MDLESEIIQLVRQNIRPKFPSLNDEQQARLDNALKYDVNYDILKKELVEYIDDWKRNEYYDVLTNIGDLQRLDLGNMLNGDGVSFPKLHSDLANLPRFRLIDNENEMDQSLLHKYDSLRTRLIEKCRAIELIRSATNTDVNYQDINSMLSVVELRQWRDEIQMEWKELAQNLELILKTWPDLTEEKRSKLLQLIDSSSLKSILHIKDNIE
chain 2: B4 chain
notes: Nkp1 of Kluyveromyces lactis; Nkp2 of Kluyveromyces lactis; also called NN; source: E. coli BL21 Rosetta 2(DE3)pLysS, purified
B6: Okp1_229-383 (K. lactis) (domain or fragment, Kluyveromyces lactis, UniProt Q6CJY0 229-383, looked up)
chain: DNLNMEYIYAKGESIKKRYKSELDRAEAIERQLIREEEHLKSLQEKGETQAKKRKQVLSKELSELSKTMHPSLSVALSNTFGLIKDDKMSNEIYQQDKIDFNLKLKTDFSKPLISEKEENSLNGLTNAMDNNRELVNEIFGKISALLQPKKNSNE
notes: also called Okp1 variant with segments 1, 2 and 3; source: E. coli BL21 Rosetta 2(DE3)pLysS, co-expressed with Ctf19_D-RWD and Mcm21_D-RWD, purified

The target in series [1] is T1, fluorescently labelled full-length Ctf19-Mcm21 (Kluyveromyces lactis, UniProt Q6CRN7+Q6CVQ9).
T1 construct: we purified full-length K. lactis; NT-647-NHS red fluorescent dye on lysine side chains (chemical label); made in house; host or cells: Escherichia coli BL21 Rosetta 2(DE3)pLysS
T1 sequence (Q6CRN7 1-270): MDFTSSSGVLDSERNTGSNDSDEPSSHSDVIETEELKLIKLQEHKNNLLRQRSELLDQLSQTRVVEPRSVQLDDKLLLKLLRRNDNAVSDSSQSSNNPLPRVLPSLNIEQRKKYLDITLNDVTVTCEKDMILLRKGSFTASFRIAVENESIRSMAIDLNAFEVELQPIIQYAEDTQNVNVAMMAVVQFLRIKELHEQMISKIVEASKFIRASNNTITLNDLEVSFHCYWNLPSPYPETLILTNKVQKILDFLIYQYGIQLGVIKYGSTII
T1 sequence (Q6CVQ9 1-293): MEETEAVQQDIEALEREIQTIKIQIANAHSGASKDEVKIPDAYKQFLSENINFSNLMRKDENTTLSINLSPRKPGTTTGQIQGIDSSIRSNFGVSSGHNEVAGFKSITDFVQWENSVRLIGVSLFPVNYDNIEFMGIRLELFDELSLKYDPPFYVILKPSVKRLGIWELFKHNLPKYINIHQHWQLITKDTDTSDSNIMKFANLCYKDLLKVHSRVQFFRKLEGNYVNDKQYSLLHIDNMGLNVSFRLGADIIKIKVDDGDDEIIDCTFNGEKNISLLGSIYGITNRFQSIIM
Briefly: microscale thermophoresis (MST) of Okp1-derived peptides with full-length Ctf19-Mcm21. In kind it is binding, K. lactis. As to conditions: NT.115 Monolith, 22–25 °C, ~27 nM NT-647-labelled Ctf19-Mcm21, ITC/MST buffer pH 7.5, thermophoresis + T jump, mean and 68% confidence interval, three independent experiments.

A short description of another series: dynamic light scattering. It counts as physicochemical. The conditions noted are these: DLS at 15 °C, ~21 µM (assuming COMA dimer) or similar concentrations.
Series [2] concerns the molecule itself. As to the kind of experiment: native MS; nanoflow spectra and tandem mode with collision-induced dissociation in the gas phase (argon); subassemblies stripped of subunits.
In series [3] the target is T2, full-length Ctf19-Mcm21 (K. lactis) (Kluyveromyces lactis, UniProt Q6CRN7 1-270; Q6CVQ9 1-293).
T2 chain 1: T1 sequence (Q6CRN7 1-270)
T2 chain 2: T1 sequence (Q6CVQ9 1-293)
As to the kind of experiment: ITC.

Series [4] concerns the target T3, full-length Ctf19-Mcm21 (K. lactis) (Kluyveromyces lactis, UniProt Q6CRN7 1-270; Q6CVQ9 1-293).
T3 construct: Ctf19 of Kluyveromyces lactis; Mcm21 of Kluyveromyces lactis; for microscale thermophoresis it was labelled on lysine side chains with the red dye NT-647-NHS; also stands for the Ctf19-Mcm21 subassembly of COMA in nanoflow mass spectra; source: E. coli BL21 Rosetta 2(DE3)pLysS, co-expressed, purified
T3 sequence (looked up) 1: T1 sequence (Q6CRN7 1-270)
T3 sequence (looked up) 2: T1 sequence (Q6CVQ9 1-293)
Briefly: MST; Ctf19-Mcm21 labelled with NT-647-NHS on lysines, ~27 nM; dilution series of peptide; 22-25°C; ITC/MST buffer; three dilution series. The conditions noted are these: both partners purified.

In series [5] the target is T3, full-length Ctf19-Mcm21 (K. lactis). As to the kind of experiment: ITC; peptide at 120 uM injected into 13 uM Ctf19-Mcm21 in the cell, 25°C, ITC/MST buffer; single set of sites fit; three independent measurements. As to conditions: both partners purified.
Series [6] addresses B5. As to the kind of experiment: SEC; Superdex 200 HiLoad 10/600 prep grade column (Appendix Fig S7B). The conditions noted are these: both partners purified.
The target of another series is T4, Nkp1 (K. lactis) (Kluyveromyces lactis, UniProt Q6CPR4 1-210).
T4 construct: Nkp1 of Kluyveromyces lactis; also called non-essential kinetochore protein 1; HisNkp1; source: E. coli BL21 Rosetta 2(DE3)pLysS, purified
T4 sequence (looked up): B5 chain 1
As to the kind of experiment: HDX-MS; purified assemblies in D2O buffer, quenched at pH ~2.5, pepsin column; exchange patterns compared between assemblies. As to conditions: both partners purified.

Series [7] has as its target B1. Briefly: native MS; nanoflow spectra and tandem mode with collision-induced dissociation in the gas phase (argon); subassemblies stripped of subunits. The conditions noted are these: both partners purified.
The target in series [8] is T5, COMA (K. lactis, full length: Ame1, Ctf19, Mcm21, Okp1) (Kluyveromyces lactis, UniProt Q6CUE5 1-292; Q6CRN7 1-270; Q6CVQ9 1-293; Q6CJY0 1-383).
T5 construct: Ame1 of Kluyveromyces lactis; Ctf19 of Kluyveromyces lactis; Mcm21 of Kluyveromyces lactis; Okp1 of Kluyveromyces lactis; copies: + + +
T5 sequence (looked up) 1: B1 chain 1
T5 sequence (looked up) 2: T1 sequence (Q6CRN7 1-270)
T5 sequence (looked up) 3: T1 sequence (Q6CVQ9 1-293)
T5 sequence (looked up) 4: B1 chain 2
The series is described as above. The conditions noted are these: both partners purified.

Series [9] concerns the target T5, COMA (K. lactis, full length: Ame1, …). Briefly: SEC; reconstituted K. lactis COMA-Nkp1-Nkp2; peak fractions on Coomassie-stained SDS-PAGE.
Series [10] deals with T6, Ctf19_D-RWD-Mcm21_D-RWD-Okp1_229-383 (K. lactis) (Kluyveromyces lactis, UniProt Q6CRN7 107-270; Q6CVQ9 108-293; Q6CJY0 229-383).
T6 construct: Ctf19 of Kluyveromyces lactis, residues 107-270; Mcm21 of Kluyveromyces lactis, residues 108-293; also called Ctf19-Mcm21-Okp1 variant that includes Okp1 segment 3; CMO; source: E. coli BL21 Rosetta 2(DE3)pLysS, co-expressed, purified; copies: + +
T6 sequence (looked up) 1: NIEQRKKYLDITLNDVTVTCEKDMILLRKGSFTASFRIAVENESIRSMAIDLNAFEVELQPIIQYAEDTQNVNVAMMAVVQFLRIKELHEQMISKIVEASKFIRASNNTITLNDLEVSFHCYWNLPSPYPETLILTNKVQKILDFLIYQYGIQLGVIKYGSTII
T6 sequence (looked up) 2: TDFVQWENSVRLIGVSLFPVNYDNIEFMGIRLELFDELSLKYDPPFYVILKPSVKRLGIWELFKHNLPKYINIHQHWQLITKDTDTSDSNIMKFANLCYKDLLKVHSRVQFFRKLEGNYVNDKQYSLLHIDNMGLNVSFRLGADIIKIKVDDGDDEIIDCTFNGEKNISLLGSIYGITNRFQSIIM
T6 sequence (looked up) 3: B6 chain
As to the kind of experiment: SEC; analytical SEC of purified K. lactis samples alone and combined, Superdex 200 10/300, 4°C; fractions on SDS-PAGE. The conditions noted are these: both partners purified.

Series [11] has as its target B5. Described as above. The conditions noted are these: both partners purified.

As for “N330A-K332P: Okp1 peptide variant differing in two residue positions (SNEIYQQDKIDFALPLKTDF)”, the “dissociation constant (Kd)” value in [1] is “no detectable binding”.

Turning to “COMA-Nkp1-Nkp2: reconstituted COMA bound with Nkp1-Nkp2”, the “hydrodynamic radius (Rh)” value in “dynamic light scattering” worked out at 13.7 nm.

As to B1, in [2], the binding result is “binds”.

For B2, the Kd in series [3] was 43 nM; in series [4] it was roughly 80 nM; in series [5], roughly 40 nM.

In the case of B3, the binding result in series [6] is “binds”.

Regarding B4, the binding result (with Nkp1 (K. lactis); in [7]; in [8]) was “binds” in each case.

On to B5, for which the binding result in [9] and in [10] was “binds” throughout.

For B6, in series [11], the binding result is recorded as “binds”.
